What was measured:
Arabidopsis plants = settings: yes/no; for Herbicide tolerance: Table 2, FIG. 6C legend: Star 1.25 kg/hectare; for High concentration herbicide tolerance: Table 1
[1] = system: transgenic Arabidopsis plants; format: in vivo; settings: for level of resistance against Aurora (in words): Aurora 0.01% to 0.5%, compared to control plants; for level of resistance to Strike, more tolerant to treatment as compared to control plants: 5 orders of magnitude
Excerpt: (SEQ ID NO: 8 was cloned from SEQ ID NO: 1, SEQ ID NO: 9 was cloned from SEQ ID NO: 2, SEQ ID NO: 10 was cloned from SEQ ID NO: 3, SEQ ID NO: 11 was cloned from SEQ ID NO: 4, SEQ ID NO: 12 was cloned from SEQ ID NO: 5, SEQ ID NO: 13 was cloned from SEQ ID NO: 6 SEQ ID NO: 14 was cloned from SEQ ID NO: 7). […] FIG. 1B summarizes the results of the three experiments described hereinabove.

Molecule | Herbicide tolerance (Arabidopsis plants) | level of resistance against Aurora (in words) [1] | level of resistance to Strike, more tolerant to treatment as compared to control plants ([1]; Strike 0.01% to 1%) | level of resistance against Strike (in words) ([1]; Strike 0.01% to 1%) | High concentration herbicide tolerance (Arabidopsis plants)
SEQ ID NO: 100: PPO from Rhizophagus sp. Protein. (protein, listed as Rhizophagus sp.) MSSPNNFVILGGGISGLSAAWYLSRYAPSTTKILVLEGSNRFGGWIKSKRVGQHKILFEQGPRTLRPNGIGGSVVLDMVNRLNLIPSLHAVTKDDDAAKDRFIYYPDKIVKLPGTSLLSSMKSVFTNNFLLKSIPSILFEPFIKPARNYHDETIHEFISRRFSKSISDILISALIHGIYAGDINKLSIRSTFTRLYNLEQKYGSVIKGLLMSNKEEFLSQQDKYLLKIINDENKDFLSIFKNVSLYSFKDGIEQLSSAIVNDLKNKENVQLKTNNQVTKLEFGENVKIFTNEAVYEADHVISALPSRALYNILPEKDVLPHLNYNPSVSVATINLAYAHPKILPVKGFGYLIPQSTPHNPYHVLGVVFDSNAMPLQDEPSRTYTKLTIMMGGHYFNSISEKDDFPKKEILLQQSIEILEKHLGIYSTPLYYLVDIQKNCIPQYYVGHYSRLKELHYAIKNHYANRLSVTGASYWGISINDCVLNSAKLVLNILSNSPNVVTGLEEVEIQNEHYL | no |  |  |  | 
SEQ ID NO: 1: PPO from Aspergillus sp. Protein. (protein, listed as Aspergillus sp.) MRLPCASSRVFRQVRAPLALLSRGQRHAVHTKQFDAAVIGGGITGLTAAYQLSRDPSCSKVTLYEKSPHLGGWLSSEQIPVPGGHVVFEYGPRTLRTSSPSCLPMMDLIMNLDLLDDVLICDKKSPAAQNRYIYYPDHLVRLPFPPTEGLLKTAWTLLMEPLFETFLYSAIFEKPKRAENTHILSRDESVADFVSRRFSPKISENLASAVMAGIFAGDVNRLSAEMAIGYVRELEKRYGSIVDGMMTQRASEMRAMPMDELLALESVAVPSHSDDRYWKSLRAVVSDASVLTLKNGLGQLTDAMAAQLRSSRNVEVVTGTEVTSLSQNPKTQDLTIGFGKNESKTHNRVIATHAPSSLARQIQNTKVGVVPSDTIRDLGQNNYAVTVMVVNLYYEDPDLVPVEGFGYLLPSSVPFEQNPERALGVIFGSQSSEGQDTAPGTKLTVMMGGHLWDGWSESDYPDPDKAIEMAQALLHRHLGIKTAPSVARARLLRDAIPQYTVGHLSRMKELSHSVRSDFHKRLTLAGAWYGTVGIGVVDCIRQGYLASSYGVGSKKLGPGNSRRPWTKHDFHNWELEGGIATSPVRLDNVHVTERQHY |  | very high levels of resistance | about 10^5 |  | 
SEQ ID NO: 10: PPO from Fusarium sp. fused to cTP. Chimeric Protein; cloned from SEQ ID NO: 3 (protein) MELSLLRPTTQSLLPSFSKPNLRLNVYKPLRLRCSVAGGMSRRRAESTAVALLSSPAKSHLQPPLRRLDGIRSLSTSSALARRRPIVACNYTQSFNNGRTFVSQAKDANIAVLGGGLTGLTAAYYLAKKLPSTAKITLYESSDRLGGWIKTDRVPVDIEGKSGTLSFERGARSLSSLVGNTFRFDDLVLYDLALDLGLAINSPSQQPRYIYYPDHLVPTPPNISIFDMLREPLYLEIIGASLGLGINSLRKRTLPSKDYSVSEWLYAVSNSRKGIGNLASAMMHGIYGGDIHKLSARCVLDRLYWGWYLPNPGLSVRPMPVAEQALLETLGQDKQIQKMALEPRSALVDFGDKGMESLPQALSAALREQPNITIKTGEAVQDVVYNKANQQVHITSSNAKDNSKHNSKVYDKVISTLSAQDIALLAGNKLPSLSTAHSVSVMTVNIWFPQENLKPPGFGYLIPNSVAPELNPEHALGVFFDSDVQTRSKDEPAGTKLFVLMGGHYYDRPDVTPPTEEEAIIQARNLLERHLGIPRDAPAYATANFARECIPQHYVGHQDRLKAAHTELTRNFGGRLAVAGGSFTRIGAVASLRAGYDAATAAKKGLEATGLEYLNDIQQFSVVATSHIPVRHFK |  | not against Aurora | about 10^5 | high levels of resistance | 
SEQ ID NO: 98: PPO from Hesseltinella sp. Protein. (protein, listed as Hesseltinella sp.) MPRSIVVLGGGISGLSAAYYLSRLVPQAHIRLIESNKRAGGFIKTQQVNDHLIFEAGPRTLRPHGTSGTVLLDMIKDLDLSPLLVNIPKSHPSAQHRYIEYHGQINQLPSGLADMLLHSPPIMDSVITAGMREPFLARASTTKDESLYNFMERRFNEHTALNLMGAMAHGIYAGDAKQLSVHSTFPILAACEQEYGSVVLGMLSGKLSVESPRERQLADACRAKDPEWFKQMQQSSVLGFLPGLGALPSRLTQFLSSQPNVSMQLGETVSRLDGQSSHQIEITTSQGQIYHADHIVSTLPSHALARISMPTTTSLPHLTHNPSADVALVNLAYEKCKVKPGLDGFGFLTPHADTMPPSQFPGLLGMIFDSNSLGVQDQDSNMVRFTAMIGGADWNLAFGSLHDNDAISSKALTMATAALSKYLEIHESPAHYHCRILRQCIPQYLVGHRQRMNELHAALQHSFGHTMSVTGASYLGVSVPDCIKHSRMLIEDLVDTGALGSKQAVITGLEKVTLPMYYKL | yes |  |  |  | yes
SEQ ID NO: 102: Glycine max protoporphyrinogen oxidase 1, chloroplastic, XP_003536005.1 (protein, Glycine max) MVSVFNEILFPPNQTLLRPSLHSPTSFFTSPTRKFPRSRPNPILRCSIAEESTASPPKTRDSAPVDCVVVGGGVSGLCIAQALATKHANANVVVTEARDRVGGNITTMERDGYLWEEGPNSFQPSDPMLTMVVDSGLKDELVLGDPDAPRFVLWNRKLRPVPGKLTDLPFFDLMSIGGKIRAGFGALGIRPPPPGHEESVEEFVRRNLGDEVFERLIEPFCSGVYAGDPSKLSMKAAFGKVWKLEKNGGSIIGGTFKAIQERNGASKPPRDPRLPKPKGQTVGSFRKGLTMLPDAISARLGNKVKLSWKLSSISKLDSGEYSLTYETPEGVVSLQCKTVVLTIPSYVASTLLRPLSAAAADALSKFYYPPVAAVSISYPKEAIRSECLIDGELKGFGQLHPRSQGVETLGTIYSSSLFPNRAPPGRVLLLNYIGGATNTGILSKTDSELVETVDRDLRKILINPNAQDPFVVGVRLWPQAIPQFLVGHLDLLDVAKASIRNTGFEGLFLGGNYVSGVALGRCVEGAYEVAAEVNDFLTNRVYK |  |  |  |  | no
SEQ ID NO: 8: PPO from Aspergillus sp. fused to cTP. Chimeric Protein; cloned from SEQ ID NO: 1 (protein) MELSLLRPTTQSLLPSFSKPNLRLNVYKPLRLRCSVAGGMRLPCASSRVFRQVRAPLALLSRGQRHAVHTKQFDAAVIGGGITGLTAAYQLSRDPSCSKVTLYEKSPHLGGWLSSEQIPVPGGHVVFEYGPRTLRTSSPSCLPMMDLIMNLDLLDDVLICDKKSPAAQNRYIYYPDHLVRLPFPPTEGLLKTAWTLLMEPLFETFLYSAIFEKPKRAENTHILSRDESVADFVSRRFSPKISENLASAVMAGIFAGDVNRLSAEMAIGYVRELEKRYGSIVDGMMTQRASEMRAMPMDELLALESVAVPSHSDDRYWKSLRAVVSDASVLTLKNGLGQLTDAMAAQLRSSRNVEVVTGTEVTSLSQNPKTQDLTIGFGKNESKTHNRVIATHAPSSLARQIQNTKVGVVPSDTIRDLGQNNYAVTVMVVNLYYEDPDLVPVEGFGYLLPSSVPFEQNPERALGVIFGSQSSEGQDTAPGTKLTVMMGGHLWDGWSESDYPDPDKAIEMAQALLHRHLGIKTAPSVARARLLRDAIPQYTVGHLSRMKELSHSVRSDFHKRLTLAGAWYGTVGIGVVDCIRQGYLASSYGVGSKKLGPGNSRRPWTKHDFHNWELEGGIATSPVRLDNVHVTERQHY |  | very high levels of resistance | about 10^5 |  | 
SEQ ID NO: 9: PPO from Aspergillus sp. fused to cTP. Chimeric Protein; cloned from SEQ ID NO: 2 (protein) MELSLLRPTTQSLLPSFSKPNLRLNVYKPLRLRCSVAGGMRLPCASSRAFRQVRAPLALLHRGQRHAVHTKQFDAAVIGGGITGLTAAYQLSRDPSCSKVTLYEKSSHLGGWLSSEQIPVPGGHVVFEYGPRTLRTSSPSCLPMMDLIMNLDLLDDVLICDKKSPAAQNRYIYYPDHLVRLPFPPTEGLLKTAWTLLMEPLFETFLYSAIFEKPKRAENTHILSRDESVADFVSRRFSPKISENLASAVMAGIFAGDVNRLSAEMAIGYVRELEKRYGSIVDGMMTQRASEMRAMPMDELLALESVAVPSHSDDRYWKSLRAVVTDASVLTLKNGLGQLTDAMAAQLRSSRNVEVVTGTEVTSLSQNPKTQDLTIGFGKNESRTHNRVIATHAPSSLARQIQNTKVGVVPSDTIRDLGQNNYAVTVMVVNLYYEDPDLVPVEGFGYLLPSSVPFEQNPERALGVIFGSQSSEGQDTAPGTKLTVIMGGHLWDGWSESDYPDPDKAIEMAQALLHRHLGIKTAPSVARARLLRDAIPQYTVGHLSRMKELSHSVRSDFHKRLTLAGAWYGTVGIGVVDCIRQGYLASSYGVGSKKLGPGNSRRPWTKHDFHNWELEGGIATSPVRFDNVHVTERQHY |  | very high levels of resistance | about 10^5 |  | 
SEQ ID NO: 101: 4IVO_B. Structure of human protoporphyrinogen IX oxidase(R59Q) [Homo sapiens] (protein, listed as Homo sapiens) MGRTVVVLGGGISGLAASYHLSRAPCPPKVVLVESSERLGGWIRSVRGPNGAIFELGPQGIRPAGALGARTLLLVSELGLDSEVLPVRGDHPAAQNRFLYVGGALHALPTGLRGLLRPSPPFSKPLFWAGLRELTKPRGKEPDETVHSFAQRRLGPEVASLAMDSLCRGVFAGNSRELSIRSCFPSLFQAEQTHRSILLGLLLGAGRTPQPDSALIRQALAERWSQWSLRGGLEMLPQALETHLTSRGVSVLRGQPVCGLSLQAEGRWKVSLRDSSLEADHVISAIPASVLSELLPAEAAPLARALSAITAVSVAVVNLQYQGAHLPVQGFGHLVPSSEDPGVLGIVYDSVAFPEQDGSPPGLRVTVMLGGSWLQTLEASGCVLSQELFQQRAQEAAATQLGLKEMPSHCLVHLHKNCIPQYTLGHWQKLESARQFLTAHRLPLTLAGASYEGVAVNDCIESGRQAAVSVLGTEPNS | no |  |  |  | no

Source: patent publication US12674174B2, “Protoporphyrinogen oxidase (PPO) resistance plant” (PLANTARC BIO LTD., priority 2022, dated 2026)
